Laboratory results from the supplement of paper PMC9116672.
± gives the standard deviation of the averaged measurements or the uncertainty stated by the source.

Key:
[1] = duplex formation free energy ΔG50 (Van't Hoff fit of HRM Tm); higher = less stable duplex; settings: temperature for dG: 50 °C, NaCl: 500 mM (unadjusted)
Experimental: (§1)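 Duplex of the listed DNA strand with its complement, in 1x NNE buffer (500 mM NaCl, pH 7.0) with 1x EvaGreen. ΔH and ΔS come from a Van't Hoff linear fit of 1/Tm against ln(CT/4) over 1-20 uM, using HRM Tm values.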

[2] = duplex melting temperature (HRM, EvaGreen); higher = more stable duplex
Experimental: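 Listed DNA strand annealed 1:1 with its complementary strand (95 °C 5 min, 0.1 °C/s to 20 °C). Melted in 1x NNE buffer (500 mM NaCl, 10 mM Na2HPO4, 1 mM EDTA, pH 7.0) with 1x EvaGreen on a LightCycler96 (37 to 97 °C, 0.1 °C/s). Tm is the peak of -dF/dT at the stated total duplex concentration; 4 replicates are averaged. PS oligos are non-stereospecific (Rp/Sp mixtures).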

[3] = duplex formation enthalpy ΔH (Van't Hoff fit of HRM Tm); higher = less exothermic duplex formation; settings: temperature for dG: 50 °C, NaCl: 500 mM (unadjusted)
Experimental: as §1

[4] = duplex formation entropy ΔS (Van't Hoff fit of HRM Tm); higher = smaller entropy loss on duplex formation; settings: temperature for dG: 50 °C, NaCl: 500 mM (unadjusted)
Experimental: as §1

[5] = backbone: PS-PO (listed strand fully phosphorothioate, complement phosphodiester)
[6] = backbone: PS-PS (both strands fully phosphorothioate)
[7] = duplex concentration 1 µM, backbone: PS-PO (listed strand fully phosphorothioate, complement phosphodiester)
[8] = duplex concentration 1 µM, backbone: PS-PS (both strands fully phosphorothioate)
[9] = duplex concentration 2.5 µM, backbone: PO-PO (both strands phosphodiester DNA)
[10] = duplex concentration 2.5 µM, backbone: PS-PO (listed strand fully phosphorothioate, complement phosphodiester)
[11] = duplex concentration 2.5 µM, backbone: PS-PS (both strands fully phosphorothioate)
[12] = duplex concentration 5 µM, backbone: PO-PO (both strands phosphodiester DNA)
[13] = duplex concentration 5 µM, backbone: PS-PO (listed strand fully phosphorothioate, complement phosphodiester)
[14] = duplex concentration 5 µM, backbone: PS-PS (both strands fully phosphorothioate)
[15] = duplex concentration 7.5 µM, backbone: PO-PO (both strands phosphodiester DNA)
[16] = duplex concentration 7.5 µM, backbone: PS-PO (listed strand fully phosphorothioate, complement phosphodiester)
[17] = duplex concentration 7.5 µM, backbone: PS-PS (both strands fully phosphorothioate)
[18] = duplex concentration 10 µM, backbone: PO-PO (both strands phosphodiester DNA)
[19] = duplex concentration 10 µM, backbone: PS-PO (listed strand fully phosphorothioate, complement phosphodiester)
[20] = duplex concentration 10 µM, backbone: PS-PS (both strands fully phosphorothioate)
[21] = duplex concentration 15 µM, backbone: PO-PO (both strands phosphodiester DNA)
[22] = duplex concentration 15 µM, backbone: PS-PO (listed strand fully phosphorothioate, complement phosphodiester)
[23] = duplex concentration 15 µM, backbone: PS-PS (both strands fully phosphorothioate)
[24] = duplex concentration 20 µM, backbone: PO-PO (both strands phosphodiester DNA)
[25] = duplex concentration 20 µM, backbone: PS-PO (listed strand fully phosphorothioate, complement phosphodiester)
[26] = duplex concentration 20 µM, backbone: PS-PS (both strands fully phosphorothioate)
[27] = backbone: PO-PO (both strands phosphodiester DNA)
[28] = duplex concentration 1 µM, backbone: PO-PO (both strands phosphodiester DNA)

Sequence	duplex formation free energy ΔG50 [1, 5] [kcal/mol]	duplex formation free energy ΔG50 [1, 6] [kcal/mol]	duplex melting temperature [2, 7] [°C]	duplex melting temperature [2, 8] [°C]	duplex melting temperature [2, 9] [°C]	duplex melting temperature [2, 10] [°C]	duplex melting temperature [2, 11] [°C]	duplex melting temperature [2, 12] [°C]	duplex melting temperature [2, 13] [°C]	duplex melting temperature [2, 14] [°C]	duplex melting temperature [2, 15] [°C]	duplex melting temperature [2, 16] [°C]	duplex melting temperature [2, 17] [°C]	duplex melting temperature [2, 18] [°C]	duplex melting temperature [2, 19] [°C]	duplex melting temperature [2, 20] [°C]	duplex melting temperature [2, 21] [°C]	duplex melting temperature [2, 22] [°C]	duplex melting temperature [2, 23] [°C]	duplex melting temperature [2, 24] [°C]	duplex melting temperature [2, 25] [°C]	duplex melting temperature [2, 26] [°C]	duplex formation enthalpy ΔH [3, 5] [kcal/mol]	duplex formation enthalpy ΔH [3, 6] [kcal/mol]	duplex formation entropy ΔS [4, 5] [cal/mol/K]	duplex formation entropy ΔS [4, 6] [cal/mol/K]	duplex formation free energy ΔG50 [1, 27] [kcal/mol]	duplex melting temperature [2, 28] [°C]	duplex formation enthalpy ΔH [3, 27] [kcal/mol]	duplex formation entropy ΔS [4, 27] [cal/mol/K]
GATGCCGCAGCGACCTG	-13.6 ± 0.14	-12.42 ± 0.065	67.1	61.35 ± 0.33	76.6 ± 1.4	69.756 ± 0.045	64.23 ± 0.086	78.68 ± 0.64	72.16 ± 0.23	66.19 ± 0.1	80.46 ± 0.37	73.33 ± 0.28	67.4 ± 0.078	81.03 ± 0.31	74.43 ± 0.15	68.25 ± 0.097	82.09 ± 0.41	75.63 ± 0.13	69.34 ± 0.12	82.88 ± 0.26	76.48 ± 0.17	70.24 ± 0.13	-75.7 ± 2.1	-77.6 ± 1.3	-192 ± 5.9	-202 ± 3.8	–	–	–	–
GCTGTGAAACAATGTAG	-10.46 ± 0.049	-8.078 ± 0.024	52.85 ± 0.06	43.66 ± 0.19	62.76 ± 0.31	55.41 ± 0.29	45.72 ± 0.19	64.54 ± 0.42	57.39 ± 0.24	47.54 ± 0.13	65.61 ± 0.42	58.44 ± 0.21	48.34 ± 0.13	66.58 ± 0.4	59.19 ± 0.24	49.09 ± 0.059	67.8 ± 0.33	60.21 ± 0.11	50.25 ± 0.24	68.65 ± 0.32	61.12 ± 0.092	51.09 ± 0.3	-78.8 ± 1.9	-82.8 ± 2.5	-211 ± 5.7	-231 ± 7.8	-12.3 ± 0.16	60.4 ± 1.3	-82.5 ± 3.5	-217 ± 10
GAACCGTTGATGATCTC	-10.93 ± 0.053	-9.101 ± 0.027	54.79 ± 0.14	46.68 ± 0.22	65.33 ± 0.31	57.31 ± 0.16	49.91 ± 0.24	67.16 ± 0.13	59.39 ± 0.12	51.98 ± 0.084	68.29 ± 0.098	60.41 ± 0.13	53.01 ± 0.082	69.2 ± 0.096	61.285 ± 0.052	53.86 ± 0.097	70.38 ± 0.088	62.38 ± 0.1	54.9 ± 0.045	71.31 ± 0.079	63.117 ± 0.054	55.75 ± 0.06	-78.8 ± 1.7	-70.3 ± 2.3	-210 ± 5	-189 ± 7.2	-12.78 ± 0.09	63.4	-80.1 ± 1.6	-208 ± 4.8
AGAGCGCCCTGCTGCC	-13.3 ± 0.17	-12.59 ± 0.085	–	61.69 ± 0.3	76.76 ± 0.43	69.05 ± 0.38	64.26 ± 0.22	78.81 ± 0.32	71.34 ± 0.29	66.24 ± 0.22	79.83 ± 0.11	72.67 ± 0.34	67.29 ± 0.24	80.68 ± 0.17	73.6 ± 0.23	68.17 ± 0.076	81.9 ± 0.28	74.83 ± 0.1	69.33 ± 0.14	82.78 ± 0.25	75.7 ± 0.12	70.195 ± 0.058	-74.4 ± 2.6	-80.8 ± 1.7	-189 ± 7.4	-211 ± 5	-15.8 ± 0.28	–	-86.9 ± 3.2	-220 ± 9
GGACGGCGTT	–	–	–	39.971 ± 0.0066	–	–	43 ± 0.68	–	–	47.59 ± 0.14	–	–	50.3 ± 1.2	63.65 ± 0.51	–	50.8 ± 1.5	64.94 ± 0.51	61.1 ± 0.49	53.7 ± 0.47	65.94 ± 0.2	62.78 ± 0.33	53.7	–	–	–	–	–	–	–	–
CGGCGCGCTG	–	–	–	44.8 ± 1.1	66.4	–	47 ± 1.1	67.7 ± 0.9	64.9 ± 1.3	50 ± 1.2	69.25 ± 0.52	66.2 ± 0.84	–	70.35 ± 0.13	67.43 ± 0.12	–	70.84 ± 0.39	68.41 ± 0.079	–	72.07 ± 0.61	69.27 ± 0.21	–	–	–	–	–	–	–	–	–
